Source: publication PMC9482650, “Quantitative fragmentomics allow affinity mapping of interactomes” (Nature Communications, 2022)

T1: GRIP1_2, Q9Y3R0
T1 sequence (Q9Y3R0 145-248, limits assumed, looked up): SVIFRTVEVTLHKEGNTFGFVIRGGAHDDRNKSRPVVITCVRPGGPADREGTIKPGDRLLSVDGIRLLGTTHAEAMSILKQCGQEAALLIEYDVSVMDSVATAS

T2: MPDZ_12, O75970
T2 sequence (O75970 1857-1958, limits assumed, looked up): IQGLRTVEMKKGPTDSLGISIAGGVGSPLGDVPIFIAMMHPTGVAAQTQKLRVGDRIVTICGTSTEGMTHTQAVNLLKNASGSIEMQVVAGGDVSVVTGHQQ

T3: PTPN13_1, Q12923
T3 sequence (Q12923 1088-1188, limits assumed, looked up): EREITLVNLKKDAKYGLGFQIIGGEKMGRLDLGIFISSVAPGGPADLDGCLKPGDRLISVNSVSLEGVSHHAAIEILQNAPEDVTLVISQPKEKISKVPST

T4: RHPN1, Q8TCX5
T4 sequence (Q8TCX5 508-602, limits assumed, looked up): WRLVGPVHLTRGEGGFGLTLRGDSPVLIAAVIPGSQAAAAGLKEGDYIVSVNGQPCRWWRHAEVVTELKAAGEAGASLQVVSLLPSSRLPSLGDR

T5: LRRC7, Q96NW7
T5 sequence (Q96NW7 1440-1537, limits assumed, looked up): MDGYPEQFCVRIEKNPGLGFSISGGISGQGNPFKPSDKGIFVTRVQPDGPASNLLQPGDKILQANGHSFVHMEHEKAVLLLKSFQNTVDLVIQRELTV

T6: GRIP1_3, Q9Y3R0
T6 sequence (Q9Y3R0 247-346, limits assumed, looked up): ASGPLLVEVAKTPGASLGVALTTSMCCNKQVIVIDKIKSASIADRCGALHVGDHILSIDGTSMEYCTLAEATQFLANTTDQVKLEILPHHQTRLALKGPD

T7: ARHGEF11, O15085
T7 sequence (O15085 42-136, limits assumed, looked up): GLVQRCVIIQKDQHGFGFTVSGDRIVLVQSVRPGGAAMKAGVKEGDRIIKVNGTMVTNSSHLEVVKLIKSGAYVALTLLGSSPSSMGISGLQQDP

T8: RADIL, Q96JH8
T8 sequence (Q96JH8 971-1071, limits assumed, looked up): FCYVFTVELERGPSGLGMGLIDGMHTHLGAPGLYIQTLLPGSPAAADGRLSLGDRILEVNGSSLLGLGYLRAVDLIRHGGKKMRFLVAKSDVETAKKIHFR

T9: APBA1_2, Q02410
T9 sequence (Q02410 742-832, limits assumed, looked up): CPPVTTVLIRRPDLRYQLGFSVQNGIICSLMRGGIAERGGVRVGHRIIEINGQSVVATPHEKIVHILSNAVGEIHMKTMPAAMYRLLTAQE

T10: SNTG2, Q9NY99
T10 sequence (Q9NY99 68-166, limits assumed, looked up): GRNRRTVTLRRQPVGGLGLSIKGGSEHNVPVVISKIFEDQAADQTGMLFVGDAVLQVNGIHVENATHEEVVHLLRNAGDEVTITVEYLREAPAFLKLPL

T11: SNTB1, Q13884
T11 sequence (Q13884 107-205, limits assumed, looked up): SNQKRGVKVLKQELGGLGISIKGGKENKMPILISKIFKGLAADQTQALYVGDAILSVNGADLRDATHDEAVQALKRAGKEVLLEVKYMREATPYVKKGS

T12: PDZRN3_1, Q9UPQ7
T12 sequence (Q9UPQ7 244-349, limits assumed, looked up): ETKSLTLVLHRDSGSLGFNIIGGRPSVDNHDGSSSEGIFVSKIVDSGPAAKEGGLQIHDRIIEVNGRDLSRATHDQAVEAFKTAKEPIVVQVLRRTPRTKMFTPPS


Experiments:
Experiment in all cases: holdup assay
Set-up in all cases: key: below the threshold = too weak to quantify, mostly under pKd 3.1 to 4
Details in all cases: plain residues with an end cap or a label only (N-terminal biotin on a linker: ado-ado)
MAGI2_5, Q86UL8 = target: MAGI2_5, Q86UL8
GRIP1_2, Q9Y3R0 = target: T1, GRIP1_2, Q9Y3R0
ARHGEF12, Q9NZN5-2 = target: ARHGEF12, Q9NZN5-2
DLG1_1, Q12959 = target: DLG1_1, Q12959
DLG2_2, Q15700 = target: DLG2_2, Q15700
MPDZ_12, O75970 = target: T2, MPDZ_12, O75970
DLG4_2, P78352 = target: DLG4_2, P78352
DLG5_1, Q8TDM6 = target: DLG5_1, Q8TDM6
CASK, O14936 = target: CASK, O14936
MAGI2_3, Q86UL8 = target: MAGI2_3, Q86UL8
PTPN13_1, Q12923 = target: T3, PTPN13_1, Q12923
RHPN1, Q8TCX5 = target: T4, RHPN1, Q8TCX5
LRRC7, Q96NW7 = target: T5, LRRC7, Q96NW7
Inadl_10, Q8NI35 = target: Inadl_10, Q8NI35
SCRIB_1, Q14160 = target: SCRIB_1, Q14160
GRIP1_3, Q9Y3R0 = target: T6, GRIP1_3, Q9Y3R0
ARHGEF11, O15085 = target: T7, ARHGEF11, O15085
RADIL, Q96JH8 = target: T8, RADIL, Q96JH8
APBA1_2, Q02410 = target: T9, APBA1_2, Q02410
SNTG2, Q9NY99 = target: T10, SNTG2, Q9NY99
SNTB1, Q13884 = target: T11, SNTB1, Q13884
PDZRN3_1, Q9UPQ7 = target: T12, PDZRN3_1, Q9UPQ7
SCRIB_3, Q14160 = target: SCRIB_3, Q14160
Inadl_4, Q8NI35 = target: Inadl_4, Q8NI35
NHERF4_2, Q86UT5 = target: NHERF4_2, Q86UT5
PARD3_3, Q8TEW0 = target: PARD3_3, Q8TEW0
Chain of PARD3_3, Q8TEW0 (Q8TEW0 582-685): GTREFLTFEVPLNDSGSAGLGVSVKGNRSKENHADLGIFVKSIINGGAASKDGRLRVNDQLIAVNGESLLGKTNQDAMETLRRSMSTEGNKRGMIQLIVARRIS

Chain of SCRIB_3, Q14160 (Q14160 999-1103): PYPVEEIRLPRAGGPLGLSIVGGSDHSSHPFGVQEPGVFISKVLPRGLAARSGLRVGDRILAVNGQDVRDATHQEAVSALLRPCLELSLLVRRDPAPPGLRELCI
Chain of CASK, O14936 (O14936 487-570): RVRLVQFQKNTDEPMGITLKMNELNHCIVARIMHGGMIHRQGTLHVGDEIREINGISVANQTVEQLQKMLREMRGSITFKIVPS
Chain of Inadl_4, Q8NI35 (Q8NI35 547-651): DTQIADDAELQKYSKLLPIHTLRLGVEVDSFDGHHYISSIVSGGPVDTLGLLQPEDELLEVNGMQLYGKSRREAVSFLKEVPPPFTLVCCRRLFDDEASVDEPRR
Chain of MAGI2_5, Q86UL8 (Q86UL8 915-1017): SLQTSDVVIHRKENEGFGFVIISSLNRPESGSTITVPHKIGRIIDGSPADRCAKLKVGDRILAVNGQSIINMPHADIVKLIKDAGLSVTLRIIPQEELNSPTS
Chain of Inadl_10, Q8NI35 (Q8NI35 1673-1763): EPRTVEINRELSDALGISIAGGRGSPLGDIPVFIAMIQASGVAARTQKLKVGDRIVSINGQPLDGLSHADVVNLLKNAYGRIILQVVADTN
Chain of DLG4_2, P78352 (P78352 155-259): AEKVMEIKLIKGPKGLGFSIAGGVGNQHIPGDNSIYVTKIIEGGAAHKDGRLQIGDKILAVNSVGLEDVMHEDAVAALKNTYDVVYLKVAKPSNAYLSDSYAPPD
Chain of MAGI2_3, Q86UL8 (Q86UL8 600-682): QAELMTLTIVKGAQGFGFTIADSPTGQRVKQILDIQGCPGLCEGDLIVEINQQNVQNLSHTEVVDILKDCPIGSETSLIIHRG
Chain of NHERF4_2, Q86UT5 (Q86UT5 220-308): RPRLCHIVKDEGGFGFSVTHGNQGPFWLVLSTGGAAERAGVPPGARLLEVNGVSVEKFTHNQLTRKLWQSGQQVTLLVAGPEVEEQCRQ
Chain of DLG2_2, Q15700 (Q15700 189-283): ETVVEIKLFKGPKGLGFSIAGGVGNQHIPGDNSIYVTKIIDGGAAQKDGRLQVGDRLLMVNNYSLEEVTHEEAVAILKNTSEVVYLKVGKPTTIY
Chain of SCRIB_1, Q14160 (Q14160 718-814): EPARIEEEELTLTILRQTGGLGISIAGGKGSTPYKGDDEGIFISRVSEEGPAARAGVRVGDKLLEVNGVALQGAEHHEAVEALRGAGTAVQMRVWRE
Chain of ARHGEF12, Q9NZN5-2 (Q9NZN5 other isoform, or with tags, fused parts or gaps): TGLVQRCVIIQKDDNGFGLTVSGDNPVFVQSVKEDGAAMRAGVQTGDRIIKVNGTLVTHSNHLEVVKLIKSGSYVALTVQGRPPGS
Chain of DLG5_1, Q8TDM6 (Q8TDM6 617-713): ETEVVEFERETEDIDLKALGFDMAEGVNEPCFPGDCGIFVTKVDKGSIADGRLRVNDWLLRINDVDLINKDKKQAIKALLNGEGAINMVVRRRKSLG

Row | pKd (MAGI2_5, Q86UL8) | pKd (GRIP1_2, Q9Y3R0) | pKd (ARHGEF12, Q9NZN5-2) | pKd (DLG1_1, Q12959) | pKd (DLG2_2, Q15700) | pKd (MPDZ_12, O75970) | pKd (DLG4_2, P78352) | pKd (DLG5_1, Q8TDM6) | pKd (CASK, O14936) | pKd (MAGI2_3, Q86UL8) | pKd (PTPN13_1, Q12923) | pKd (RHPN1, Q8TCX5) | pKd (LRRC7, Q96NW7) | pKd (Inadl_10, Q8NI35) | pKd (SCRIB_1, Q14160) | pKd (GRIP1_3, Q9Y3R0) | pKd (ARHGEF11, O15085) | pKd (RADIL, Q96JH8) | pKd (APBA1_2, Q02410) | pKd (SNTG2, Q9NY99) | Binder | further results
1 | below the threshold | below the threshold | below the threshold | below the threshold | below the threshold | below the threshold | 3.78 | below the threshold | below the threshold | below the threshold | below the threshold | below the threshold | below the threshold | below the threshold | below the threshold | below the threshold | below the threshold | 4.82 | below the threshold | below the threshold | QSLNRMEYIV [JAG1, P78504] | pKd (SNTB1, Q13884): below the threshold; pKd (PDZRN3_1, Q9UPQ7): below the threshold; pKd (SCRIB_3, Q14160): below the threshold; pKd (Inadl_4, Q8NI35): below the threshold; pKd (NHERF4_2, Q86UT5): below the threshold; pKd (PARD3_3, Q8TEW0): 4.37
2 | below the threshold | below the threshold | below the threshold | below the threshold | below the threshold | below the threshold | below the threshold | below the threshold | below the threshold | below the threshold | below the threshold | below the threshold | below the threshold | below the threshold | below the threshold | below the threshold | 3.82 | below the threshold | below the threshold | below the threshold | IPLDGETEEL [MYOZ1, Q9NP98] | pKd (SNTB1, Q13884): below the threshold; pKd (PDZRN3_1, Q9UPQ7): below the threshold; pKd (SCRIB_3, Q14160): below the threshold; pKd (Inadl_4, Q8NI35): below the threshold; pKd (NHERF4_2, Q86UT5): below the threshold; pKd (PARD3_3, Q8TEW0): 3.97
3 | 4.3 | below the threshold | below the threshold | below the threshold | below the threshold | below the threshold | below the threshold | below the threshold | below the threshold | 3.61 | below the threshold | below the threshold | below the threshold | below the threshold | below the threshold | below the threshold | below the threshold | below the threshold | below the threshold | below the threshold | GNSVLKSTQF [SLC22A12, Q96S37] | pKd (SNTB1, Q13884): below the threshold; pKd (PDZRN3_1, Q9UPQ7): below the threshold; pKd (SCRIB_3, Q14160): below the threshold; pKd (Inadl_4, Q8NI35): below the threshold; pKd (NHERF4_2, Q86UT5): below the threshold; pKd (PARD3_3, Q8TEW0): below the threshold

The remaining lines, values behind:

Row | Binder | pKd (MAGI2_5, Q86UL8) | pKd (GRIP1_2, Q9Y3R0) | pKd (ARHGEF12, Q9NZN5-2) | pKd (DLG1_1, Q12959) | pKd (DLG2_2, Q15700) | pKd (MPDZ_12, O75970) | pKd (DLG4_2, P78352) | pKd (DLG5_1, Q8TDM6) | pKd (CASK, O14936) | pKd (MAGI2_3, Q86UL8) | pKd (PTPN13_1, Q12923) | pKd (RHPN1, Q8TCX5) | pKd (LRRC7, Q96NW7) | pKd (Inadl_10, Q8NI35) | pKd (SCRIB_1, Q14160) | pKd (GRIP1_3, Q9Y3R0) | pKd (ARHGEF11, O15085) | pKd (RADIL, Q96JH8) | pKd (APBA1_2, Q02410) | pKd (SNTG2, Q9NY99) | further results
4 | RHGSCVETSL [TMEM151B, Q8IW70] | 4.22 | below the threshold | 5.07 | 4.23 | 4.32 | below the threshold | 4.59 | below the threshold | below the threshold | 3.5 | below the threshold | 5.02 | 4.08 | below the threshold | 5.5 | below the threshold | 4.41 | below the threshold | 3.97 | 4.8 | pKd (SNTB1, Q13884): 4.88; pKd (PDZRN3_1, Q9UPQ7): 5.2; pKd (SCRIB_3, Q14160): 5.36; pKd (Inadl_4, Q8NI35): below the threshold; pKd (NHERF4_2, Q86UT5): below the threshold; pKd (PARD3_3, Q8TEW0): 3.59
5 | VRNLPESEEL [MYOZ3, Q8TDC0] | below the threshold | below the threshold | below the threshold | below the threshold | below the threshold | below the threshold | below the threshold | below the threshold | below the threshold | below the threshold | below the threshold | below the threshold | below the threshold | below the threshold | below the threshold | below the threshold | 3.83 | below the threshold | below the threshold | below the threshold | pKd (SNTB1, Q13884): below the threshold; pKd (PDZRN3_1, Q9UPQ7): below the threshold; pKd (SCRIB_3, Q14160): below the threshold; pKd (Inadl_4, Q8NI35): below the threshold; pKd (NHERF4_2, Q86UT5): below the threshold; pKd (PARD3_3, Q8TEW0): below the threshold
